Five molecules from US20130084301A1 (published 2013) can be followed below.

Experiment [1] deals with T1, HCV 1a E2 with alanine substitution at 441 (hepatitis C virus genotype 1a, H77c, UniProt P27958 384-746). The experiment in a line: alanine-substitution ELISA, antibody 2 ug/ml. (In general: An ELISA detects its analyte on a solid surface through an enzyme-linked reagent.)
Experiment [2] deals with T2, HCV 1a E2 with alanine substitution at 443 (hepatitis C virus genotype 1a, H77c, UniProt P27958 384-746). In words: alanine-substitution ELISA, antibody 2 ug/ml.
Experiment [3] has as its target HCV 1a E2 with alanine substitution at 613 (hepatitis C virus genotype 1a, H77c, UniProt P27958 384-746). The experiment in a line: alanine-substitution ELISA, antibody 2 ug/ml.
Experiment [4] has as its target T3, HCV 1a E2 with alanine substitution at 442 (hepatitis C virus genotype 1a, H77c, UniProt P27958 384-746). In words: alanine-substitution ELISA, antibody 2 ug/ml.
Experiment [5] has as its target T4, HCV 1a E2 with alanine substitution at 429 (hepatitis C virus genotype 1a, H77c, UniProt P27958 384-746). The experiment in a line: alanine-substitution ELISA.
Experiment [6] has as its target HCV 1a E2 with alanine substitution at 616 (hepatitis C virus genotype 1a, H77c, UniProt P27958 384-746). The experiment in a line: alanine-substitution ELISA.
In experiment [7] the target is HCV 1a E2 with alanine substitution at 428 (hepatitis C virus genotype 1a, H77c, UniProt P27958 384-746). The experiment in a line: alanine-substitution ELISA, antibody 2 ug/ml.
The target in experiment [8] is HCV 1a E2 with alanine substitution at 437 (hepatitis C virus genotype 1a, H77c, UniProt P27958 384-746). The experiment in a line: alanine-substitution ELISA, antibody 2 ug/ml.
The target of experiment [9] is HCV 1a E2 with alanine substitution at 420 (hepatitis C virus genotype 1a, H77c, UniProt P27958 384-746). The experiment in a line: alanine-substitution ELISA, antibody 2 ug/ml.
For experiment [10], the target named is T2, HCV 1a E2 with alanine substitution at …. The experiment in a line: alanine-substitution ELISA.
Experiment [11] deals with T3, HCV 1a E2 with alanine substitution at …. In words: alanine-substitution ELISA.
The target of experiment [12] is T1, HCV 1a E2 with alanine substitution at …. The experiment in a line: alanine-substitution ELISA; row marked *: tested at 0.2 ug/ml.
The target of experiment [13] is T2, HCV 1a E2 with alanine substitution at …. The experiment is described as above.
The target of experiment [14] is T4, HCV 1a E2 with alanine substitution at …. Described as above.
Experiment [15] deals with T3, HCV 1a E2 with alanine substitution at …. Described as above.
In experiment [16] the target is T4, HCV 1a E2 with alanine substitution at …. The experiment in a line: alanine-substitution ELISA, antibody 2 ug/ml.

Residue numbers refer to the chain shown, from its start.

B1: HC-84.20 (antibody, V domains shown)
VH: QVQLVQSGSEVKKPGSSVKVSCKASGGTFNIYTVNWVRQAPGQGLEWMGRIIPMLGSADYAQRFQGRVTISADKSTSTAYMELRNLKSEDTAVYYCARSLPREMFFRDDAFDIWGQGTMVTVSS
VL: ETTLTQSPGTLSLSPGERATLSCRASQSVSSNLAWYQQKPGQAPRLLIYGASTRATGIPDRFSGSGSGTDFTLTISRLEPDDFVVYYCQQYGSSPVTFGQGTRLEIKR
As for B1, the “% of binding to wt E2” value was determined as 6% in experiment [1], 26% in experiment [2], 20% in experiment [3] and 26% in [4]. The binding result in experiment [5] and in experiment [6] was “no binding (tested: 2 ug/ml)” in each case.

B2: HC-84.22 (antibody, V domains shown)
VH: EVQLVQSGAEVKKPGSSVKVSCKASGDTFSSYSIHWVRQAPGQGLEWMGRIIPIVGLVDYAQMFQGRVTISADRSTNTVYMDLSNLRSEDTAIYYCARSLGCPNGVCHGPRAADYFDYWGQGTLVTVSS
VL: EMTLTQSPSSLSASVGDRVTITCRASQSISSWLAWYQQKPGKAPKLLIYDASNLETGVPSRFSGSGSGTDFTFTISSLQPEDIATYYCQQYDNLPRTFGQGTKVDIKR
As to B2, the “% of binding to wt E2” value was 2% in experiment [1], 19% in [7], 8% in [8] and 18% in experiment [9]. Also, the binding result in experiment [10], in experiment [5], in [11] and in experiment [6] was “no binding (tested: 2 ug/ml)” throughout.

B3: HC-84.23 (antibody, V domains shown)
VH: B2 VH with E1Q, Q6E, I93Y, Y95C, C96A, A97R, R98A
VL: EIVLTQSPGTVSLFPGDRVTLSCRASQRVPSSSLAWYQQKPGQAPRLLLYGASSRATGIPDRFSGRGSGTDFALSISRLEPEDFAVYYCQQYGSSLITFGQGTRLEIKR
notes: also called HC-23
For B3, the “% of binding to wt E2” value in experiment [1] was 2%; in experiment [7], 20%; in experiment [8], 15%; in experiment [9], 20%.

B4: HC-84.21 (antibody, V domains shown)
VH: QVQLVQSGAEVKKPGSSVKVSCKASGTSFNRYTFAWVRQAPGQGLEWVGTIIPIVGLTNYAEKFQGRVSITADKSTSTTYMELSSLRSEDTAVYFCARKVEFWLGEIAPNKFDVFDLWGQGTMVTVSS
VL: EIVLTQSPDSLAVSLGERATIHCKSSQSIFFSSNSKDYLAWYQQKPGQPPKLLIYWASTRDSGVPDRFSGSGSGTDFTLTITGLQADDAAVYYCQQFDTPQITFGGGTKLEIKR
notes: also called CBH-84.21
In the case of B4, the “% of binding to wt E2” value in experiment [12] worked out at 28%; in experiment [13] it was 35%; in experiment [14], 15%; in experiment [15], 20%.

B5: HC-84.24 (antibody, V domains shown)
VH: QVQLVQSGAEVKKPGSSVKVSCKASGGTFSLNSLSWVRQAPGQGLEWMGTIIPIVGIANYAQKFQGRVTITADKSTGTAYMDLSSLSDDTAVYFCARELYSGTGFFRLEALDYWGQGTLVTVSS
VL: DIQMTQSPATLSLSPGERATLSCRASQSVSSYLAWYQQKPGQAPRLLIYDASNRATGIPARFIAGGSGTDFTLTISSLEPEDFAVYYCQQYGSPQTFGQGTKLEIKR
B5: the “% of binding to wt E2” value in experiment [2] came to 1%; in experiment [16] it was 1%; in experiment [4], 14%.
